Data reported in PMC9160799, “PET Imaging of Acidic Tumor Environment With ^89Zr-labeled pHLIP Probes” (Frontiers in Oncology, 2022).

Key:
[1] = type: in vitro ADME, human
Procedure: A potential degradation of the compounds was investigated by serum stability assay. For this, 100 µL of the prepared PBS solution (containing 1.2 nmol of pHLIP and 7.4 MBq/200 µCi) was added to 900 µL of human serum (heat inactivated from Millipore Sigma) and incubated for seven days at 37°C. The release of free ^89Zr^4+ was measured by radio instant thin-layer chromatography (as described above) and the degradation of the whole construct was checked by radio high-performance liquid chromatography (HPLC). The analytical reverse-phase HPLC was performed on a Shimadzu system equipped with a Flow Count PIN diode radiodetector from BioScan, a DGU-20A degasser, two LC-20AB pumps, and an SPD-M20A photodiode array detector. A BetaBasic 18 column (150 Å, 5.0 µm, 4.6×150 mm, Thermo Scientific) was used with water (+ 0.1% trifluoroacetic acid) and acetonitrile (+ 0.1% trifluoroacetic acid) as solvents. The gradient started at 5% acetonitrile and increased to 95% over 15 minutes at a constant flowrate of 1 mL/min. The radiochemical purities of all ^89Zr-radiolabeled pHLIP conjugates were greater than 90% over the course of seven days.

[2] = Post-mortem biodistribution, RM-1 tumor model; type: in vivo, male athymic nude mice; conditions: male, athymic nude, mouse, in vivo, iv, 1.2 nmol, total radioactivity
Procedure: (§1) The media were provided by the MSK Media Preparation Core. […] Another aliquot was diluted with the medium so that 50 µL contained 1×10^6 cells.
(§2) The imaging and biodistribution studies were performed with male (RM-1 model) and female (4T1 model) athymic nude mice and the kidney-blocking experiments were performed with female SCID mice received from Charles River Laboratories (Stone Ridge, NY). After arrival, the mice were kept in the MSK vivarium for one week before any experimental handling was performed. The animals were allowed free access to water and food, and all animal care and experimental procedures were approved by the Institutional Animal Care and Use Committee (IACUC). For the subcutaneous allografts, a 1-to-1 ratio of Corning Matrigel Matrix and the cell solution was prepared and stored on ice for the injections. Each mouse received a subcutaneous injection of 100 µL (50 µL cell solution, viability > 90%, + 50 µL Matrigel) into the flank on the level of the right shoulder. The injections were performed under anesthesia (2% isoflurane, Baxter Healthcare, Deerfield, IL, USA).
(§3) The mice were intravenously injected (tail vein) with the radiolabeled pHLIP conjugates (1.2 nmol, 7.4 MBq/200 µCi, 100 µL, in sterile filtered PBS). The activity of the syringe prior to injection and after injection was used to determine the percent of injectate administered.
(§4) For the biodistribution studies the tumor-bearing mice were randomized before the injections. Only mice with suitable tumors (150–300 mm^3) were utilized. An exception was made for the 120-hour timepoint, for which only mice with smaller tumors (150 mm^3) were selected. The mice were grouped in cohorts of four. At the respective timepoint, the mice were euthanized (by CO2 asphyxiation, followed by cervical dislocation) and their blood was collected by cardiac puncture as a terminal procedure, followed by quick removal of the tumors. After this, the other organs/samples were collected. […] The exact activities of all samples of one mouse were determined by an Capintec® CRC-55tR dose calibrator. These decay-corrected measurements were used to determine a calibration factor and calibrate all counts to the corresponding activities. Activity concentrations were calculated as percentage injected dose per tissue weight (%ID/g wet tissue). All data was processed and visualized using Origin 8.5.

[3] = system: 4T1 tumor allografts; assay: in vivo; design: species or system female athymic nude mice; conditions: mouse, iv
Procedure: as §1, §2, §3, §4

[4] = in vivo; design: species or system female athymic nude mice; conditions: female, athymic nude, mouse, iv, 1.2 nmol, total radioactivity
Procedure: as §1, §2, §3, §4

[5] = system: 4T1 tumor allografts; design: species or system female athymic nude mice; conditions: mouse, in vivo, iv
[6] = system: RM-1 tumor allografts; assay: Post-mortem biodistribution, RM-1 tumor model; type: in vivo, male athymic nude mice; conditions: mouse, in vivo, iv, 1.2 nmol, 48 h
Procedure: as §1, §2, §3, §4

CC(=O)N(O)CCCCCNC(=O)CCC(=O)N(O)CCCCCNC(=O)CCC(=O)N(O)CCCCCNC(=O)CCN1C(=O)CC(SC[C@@H](NC(=O)[C@@H](C)N)C(=O)N[C@H](CC(=O)O)C(=O)N[C@H](CC(=O)O)C(=O)N[C@H](CCC(N)=O)C(=O)N[C@H](CC(N)=O)C(=O)N2CCC[C@@H]2C(=O)N[C@H](Cc2c[nH]c3ccccc23)C(=O)N[C@H](CCCNC(=N)N)C(=O)N[C@H](C)C(=O)N[C@H](Cc2ccc(O)cc2)C(=O)N[C@H](CC(C)C)C(=O)N[C@H](CC(=O)O)C(=O)N[C@H](CC(C)C)C(=O)N[C@H](CC(C)C)C(=O)N[C@H](Cc2ccccc2)C(=O)N2CCC[C@@H]2C(=O)N[C@@H](C(=O)N[C@H](CC(=O)O)C(=O)N[C@@H](C(=O)N[C@H](CC(C)C)C(=O)N[C@H](CC(C)C)C(=O)N[C@H](CC(C)C)C(=O)N[C@H](CC(=O)O)C(=O)N[C@H](CC(C)C)C(=O)N[C@H](CC(C)C)C(=O)N[C@H](Cc2c[nH]c3ccccc23)C(=O)O)[C@H](C)O)[C@H](C)O)C1=O (some centres unmarked) (89Zr complex, metal not drawn) [DFO-Cys-Var3]
radiochemical purity after incubation in human serum [1]: > 90%
tissue uptake at 48 h ([2]; RM-1, male athymic nude mice, 48 h p.i., i.v. 1.2 nmol, 7.4 MBq, gamma counting, mean ± S.D., n=4, read-out: Brain uptake): 0.08 ± 0.01 %ID/g
tissue uptake at 48 h ([2]; RM-1, male athymic nude mice, 48 h p.i., i.v. 1.2 nmol, 7.4 MBq, gamma counting, mean ± S.D., n=4, read-out: Pancreas uptake): 0.7 ± 0.1 %ID/g
tissue uptake at 48 h ([2]; Tibia uptake): 1.4 ± 0.1 %ID/g
(biological) blood clearance half-life [3]: 16.0 ± 0.4 hours
tissue uptake at 4 h ([4]; Blood uptake): 16.1 ± 0.6 %ID/g
tissue uptake at 24 h ([4]; Blood uptake): 5.8 ± 0.5 %ID/g
tissue uptake at 48 h ([4]; Blood uptake): 2.2 ± 0.1 %ID/g
tissue uptake at 72 h ([4]; Blood uptake): 1 ± 0.1 %ID/g
tissue uptake at 120 h ([4]; Blood uptake): 0.2 ± 0.05 %ID/g
tissue uptake at 4 h ([4]; Heart uptake): 4.2 ± 0.5 %ID/g
tissue uptake at 24 h ([4]; Heart uptake): 3 ± 0.4 %ID/g
tissue uptake at 48 h ([4]; Heart uptake): 2.6 ± 0.1 %ID/g
tissue uptake at 72 h ([4]; Heart uptake): 1.9 ± 0.2 %ID/g
tissue uptake at 120 h ([4]; Heart uptake): 1.6 ± 0.3 %ID/g
tissue uptake at 4 h ([4]; Kidneys uptake): 19.8 ± 3.3 %ID/g
tissue uptake at 24 h ([4]; Kidneys uptake): 44.3 ± 6.5 %ID/g
tissue uptake at 48 h ([4]; Kidneys uptake): 47.6 ± 11.5 %ID/g
tissue uptake at 72 h ([4]; Kidneys uptake): 46.3 ± 8.3 %ID/g
tissue uptake at 120 h ([4]; Kidneys uptake): 35.3 ± 5.9 %ID/g
tissue uptake at 4 h ([4]; Liver uptake): 4.8 ± 0.4 %ID/g
tissue uptake at 24 h ([4]; Liver uptake): 6.1 ± 0.7 %ID/g
tissue uptake at 48 h ([4]; Liver uptake): 6.6 ± 0.1 %ID/g
tissue uptake at 72 h ([4]; Liver uptake): 6.7 ± 0.7 %ID/g
tissue uptake at 120 h ([4]; Liver uptake): 6 ± 0.3 %ID/g
tissue uptake at 4 h ([4]; Lungs uptake): 11.2 ± 2 %ID/g
tissue uptake at 24 h ([4]; Lungs uptake): 3.8 ± 0.9 %ID/g
tissue uptake at 48 h ([4]; Lungs uptake): 2.7 ± 0.3 %ID/g
tissue uptake at 72 h ([4]; Lungs uptake): 2 ± 0.1 %ID/g
tissue uptake at 120 h ([4]; Lungs uptake): 1.8 ± 0.3 %ID/g
tissue uptake at 24 h ([4]; Pancreas uptake): 1.8 ± 0.2 %ID/g
tissue uptake at 48 h ([4]; Pancreas uptake): 1.5 ± 0.4 %ID/g
tissue uptake at 72 h ([4]; Pancreas uptake): 1.5 ± 0.2 %ID/g
tissue uptake at 120 h ([4]; Pancreas uptake): 1.4 ± 0.1 %ID/g
tissue uptake at 4 h ([4]; Skin uptake): 2.7 ± 0.6 %ID/g
tissue uptake at 24 h ([4]; Skin uptake): 3.7 ± 0.4 %ID/g
tissue uptake at 48 h ([4]; Skin uptake): 3.9 ± 0.7 %ID/g
tissue uptake at 72 h ([4]; Skin uptake): 3.5 ± 0.6 %ID/g
tissue uptake at 120 h ([4]; Skin uptake): 3.7 ± 0.1 %ID/g
tissue uptake at 4 h ([4]; Spleen uptake): 2.7 ± 0.5 %ID/g
tissue uptake at 24 h ([4]; Spleen uptake): 4.1 ± 0.7 %ID/g
tissue uptake at 48 h ([4]; Spleen uptake): 5.1 ± 2 %ID/g
tissue uptake at 72 h ([4]; Spleen uptake): 4.3 ± 0.4 %ID/g
tissue uptake at 120 h ([4]; Spleen uptake): 6.1 ± 1 %ID/g
tissue uptake at 4 h ([4]; Tibia uptake): 1.8 ± 0.2 %ID/g
tissue uptake at 24 h ([4]; Tibia uptake): 1.8 ± 0.06 %ID/g
tissue uptake at 48 h ([4]; Tibia uptake): 1.5 ± 0.4 %ID/g
tissue uptake at 72 h ([4]; Tibia uptake): 1.6 ± 0.2 %ID/g
tissue uptake at 4 h ([4]; Tumor uptake): 5.6 ± 0.8 %ID/g
tissue uptake at 24 h ([4]; Tumor uptake): 9.4 ± 1.2 %ID/g
tissue uptake at 48 h ([4]; Tumor uptake): 9.7 ± 1.7 %ID/g
tissue uptake at 72 h ([4]; Tumor uptake): 9.1 ± 1 %ID/g
tissue uptake at 120 h ([4]; Tumor uptake): 6.8 ± 0.7 %ID/g
biological half-life for total body excretion [5]: 415 ± 10 hours

CC(=O)N[C@H](C)C(=O)N[C@H](CCCCNc1c(NCCCCCN(O)C(=O)CCC(=O)NCCCCCN(O)C(=O)CCC(=O)NCCCCCN(O)C(C)=O)c(=O)c1=O)C(=O)N[C@H](CC(=O)O)C(=O)N[C@H](CC(=O)O)C(=O)N[C@H](CCC(N)=O)C(=O)N[C@H](CC(N)=O)C(=O)N1CCC[C@@H]1C(=O)N[C@H](Cc1c[nH]c2ccccc12)C(=O)N[C@H](CCCNC(=N)N)C(=O)N[C@H](C)C(=O)N[C@H](Cc1ccc(O)cc1)C(=O)N[C@H](CC(C)C)C(=O)N[C@H](CC(=O)O)C(=O)N[C@H](CC(C)C)C(=O)N[C@H](CC(C)C)C(=O)N[C@H](Cc1ccccc1)C(=O)N1CCC[C@@H]1C(=O)N[C@@H](C(=O)N[C@H](CC(=O)O)C(=O)N[C@@H](C(=O)N[C@H](CC(C)C)C(=O)N[C@H](CC(C)C)C(=O)N[C@H](CC(C)C)C(=O)N[C@H](CC(=O)O)C(=O)N[C@H](CC(C)C)C(=O)N[C@H](CC(C)C)C(=O)N[C@H](Cc1c[nH]c2ccccc12)C(=O)N[C@H](C)C(=O)O)[C@H](C)O)[C@H](C)O (89Zr complex, metal not drawn) [DFOsqa-Lys-Var3]
Tumor uptake [6]: 12.4 ± 4.7 %ID/g
tissue uptake at 48 h ([2]; Blood uptake): 0.3 ± 0.03 %ID/g
tissue uptake at 48 h ([2]; Brain uptake): 0.06 ± 0.02 %ID/g
tissue uptake at 48 h ([2]; Heart uptake): 1.6 ± 0.1 %ID/g
tissue uptake at 48 h ([2]; Kidneys uptake): 82.5 ± 14.2 %ID/g
tissue uptake at 48 h ([2]; Liver uptake): 10.8 ± 2.1 %ID/g
tissue uptake at 48 h ([2]; Lungs uptake): 2.5 ± 0.6 %ID/g
tissue uptake at 48 h ([2]; Pancreas uptake): 1.2 ± 0.1 %ID/g
tissue uptake at 48 h ([2]; Skin uptake): 2.1 ± 0.07 %ID/g
tissue uptake at 48 h ([2]; Spleen uptake): 6.4 ± 1.4 %ID/g
tissue uptake at 48 h ([2]; Tibia uptake): 1.6 ± 0.1 %ID/g
tissue uptake at 48 h ([4]; Blood uptake): 0.4 ± 0.01 %ID/g
tissue uptake at 48 h ([4]; Brain uptake): 0.04 ± 0.01 %ID/g
tissue uptake at 48 h ([4]; Heart uptake): 1.3 ± 0.06 %ID/g
tissue uptake at 48 h ([4]; Kidneys uptake): 82.5 ± 10.9 %ID/g
tissue uptake at 48 h ([4]; Liver uptake): 11.2 ± 1 %ID/g
tissue uptake at 48 h ([4]; Lungs uptake): 1.4 ± 0.2 %ID/g
tissue uptake at 48 h ([4]; Muscle uptake): 0.5 ± 0.04 %ID/g
tissue uptake at 48 h ([4]; Pancreas uptake): 0.8 ± 0.1 %ID/g
tissue uptake at 48 h ([4]; Skin uptake): 2.6 ± 0.4 %ID/g
tissue uptake at 48 h ([4]; Spleen uptake): 6.9 ± 0.6 %ID/g
tissue uptake at 48 h ([4]; Tibia uptake): 1.5 ± 0.2 %ID/g
tissue uptake at 48 h ([4]; Tumor uptake): 10.2 ± 1.2 %ID/g
